Consider eight substances from paper PMC9881148.

The target of data set [1] is p53WT (Homo sapiens) (UniProt P04637). The data set can be described thus: FCS. The conditions noted are these: poly(ADP-ribose), 50 mM Tris pH 7.4, 150 mM NaCl, 3 mM DTT, 0.05% Tween20, 1 h room temperature, 10 nM nucleic acid.
For data set [2], the system named is histone H1 (Homo sapiens). Kind of data set: FCS. The following applies: poly(ADP-ribose), 50 mM Tris pH 7.4, 150 mM NaCl, 3 mM DTT, 0.05% Tween20, 1 h room temperature, 10 nM nucleic acid.

Chain of p53WT (Homo sapiens) (P04637 whole entry): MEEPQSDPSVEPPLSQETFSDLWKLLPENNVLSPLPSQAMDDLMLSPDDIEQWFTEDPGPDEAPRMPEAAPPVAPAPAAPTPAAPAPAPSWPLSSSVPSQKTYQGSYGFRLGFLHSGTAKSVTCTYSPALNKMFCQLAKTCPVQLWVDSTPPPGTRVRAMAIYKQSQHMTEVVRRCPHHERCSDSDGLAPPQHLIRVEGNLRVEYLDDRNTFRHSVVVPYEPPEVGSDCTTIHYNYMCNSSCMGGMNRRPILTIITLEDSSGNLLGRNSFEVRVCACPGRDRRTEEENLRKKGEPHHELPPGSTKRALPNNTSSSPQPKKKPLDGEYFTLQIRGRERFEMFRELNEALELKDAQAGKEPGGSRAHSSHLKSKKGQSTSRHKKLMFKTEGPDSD

PARHB 30-mer: in data set [1] (hyperbranched), the dissociation constant Kd worked out at 99 nM. In turn, PARHB 50-mer came in with a Kd in data set [1] (hyperbranched) of 30 nM. For the substance PARHB 40-mer, the Kd in data set [1] (hyperbranched) stood at 41 nM. In turn, PARWT 30-mer had an equilibrium dissociation constant (Kd) in data set [1] (linear) of 28 nM.

In turn, PARHB 20-mer displayed an equilibrium dissociation constant (Kd) in data set [2] (hyperbranched) of 8 nM. In other words, the single-digit nanomolar range.

PARWT 20-mer registered an equilibrium dissociation constant (Kd) in data set [2] (also printed as 4 nM in the comparison with PARHB, linear) of 5 nM. This lies in the single-digit nanomolar range. PARWT 50-mer yielded a Kd in data set [1] (first binding event, no saturation up to 5 uM, linear) of 8 nM. This lies in the single-digit nanomolar range. PARWT 40-mer: the Kd in data set [1] (linear) is 7 nM.
